# Source: patent publication CN115710315A (DONGGUAN PENGZHI BIOTECHNOLOGY CO LTD, dated 2023)
# B1: Anti-CA15-3 3F10 (antibody, V domains shown)
# VH: EVQLVESGGGLVKPGGSLKLSCAASGFAFSNYPMSWVRQTPEMRLEWVAYISSGGDSTYYPGTVKGRFTISRDNAKSALYLQMSSLKSEDTAMYYCTFWFRGFDYWGQGTTLTVSS
# VL: DVLMTQIPLSLPVSLGDQASLSCRSSQSIVHSNGNTYLEWYLQKPGQSPKLLIYKVSNRFSGVPDRFSGSGSGTDFTLKISRVEAEDLGVYYCFQGSHVPYTFGGGTKLEIK
# Molecular target: T1, CA15-3抗原 (UniProt P15941 24-1097, limits assumed)
# T1 construct: The origin of the antigen preparation used in the assays is not described; also called CA15-3(MUC1); CA15-3蛋白
# T1 sequence (P15941 24-1097 limits assumed): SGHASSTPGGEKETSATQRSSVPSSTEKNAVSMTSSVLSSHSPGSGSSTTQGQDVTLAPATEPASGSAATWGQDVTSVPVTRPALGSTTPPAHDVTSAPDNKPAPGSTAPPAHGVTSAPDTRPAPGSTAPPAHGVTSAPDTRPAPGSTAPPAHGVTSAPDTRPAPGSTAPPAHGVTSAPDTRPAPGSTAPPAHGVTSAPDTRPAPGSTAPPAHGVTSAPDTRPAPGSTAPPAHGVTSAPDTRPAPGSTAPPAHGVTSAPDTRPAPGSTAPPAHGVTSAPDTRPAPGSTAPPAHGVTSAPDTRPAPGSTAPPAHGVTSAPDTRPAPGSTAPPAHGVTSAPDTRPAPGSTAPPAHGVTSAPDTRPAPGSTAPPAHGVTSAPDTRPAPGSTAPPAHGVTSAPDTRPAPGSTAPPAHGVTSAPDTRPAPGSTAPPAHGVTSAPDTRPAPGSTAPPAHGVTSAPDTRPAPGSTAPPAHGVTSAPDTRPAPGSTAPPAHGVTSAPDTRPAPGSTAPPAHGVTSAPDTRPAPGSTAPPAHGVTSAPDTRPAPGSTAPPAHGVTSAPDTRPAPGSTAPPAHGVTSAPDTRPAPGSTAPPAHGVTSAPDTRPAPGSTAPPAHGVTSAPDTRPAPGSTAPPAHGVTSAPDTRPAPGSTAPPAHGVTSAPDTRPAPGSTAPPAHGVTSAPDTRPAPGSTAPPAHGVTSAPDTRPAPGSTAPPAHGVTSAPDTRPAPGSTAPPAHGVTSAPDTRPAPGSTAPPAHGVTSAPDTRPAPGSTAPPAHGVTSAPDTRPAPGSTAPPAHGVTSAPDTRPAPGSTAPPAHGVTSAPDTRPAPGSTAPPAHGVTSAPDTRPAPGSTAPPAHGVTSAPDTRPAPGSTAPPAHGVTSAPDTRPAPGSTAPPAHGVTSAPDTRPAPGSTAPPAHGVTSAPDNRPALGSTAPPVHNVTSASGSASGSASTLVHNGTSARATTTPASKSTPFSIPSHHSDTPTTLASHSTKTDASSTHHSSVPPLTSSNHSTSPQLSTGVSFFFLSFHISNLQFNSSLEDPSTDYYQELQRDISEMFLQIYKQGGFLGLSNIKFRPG
# Assay: BLI, AMC sensor, antibody immobilised at 10 ug/ml, CA15-3 antigen in serial dilution
molecule,measurement,value
对照 (antibody),Kd,84.5 nM
same,koff,0.00375 s⁻¹
same,kon,44400 M⁻¹ s⁻¹
B1,Kd,5.17 nM
same,koff,0.000161 s⁻¹
same,kon,31100 M⁻¹ s⁻¹
